Patent publication US20250326814A1 (OPKO BIOLOGICS, published 2025)
Non-standard residues stand in square brackets, D forms with d. No end group written: not given here. *: point of attachment. X2 = Eicosanedioic‑γGlu‑(AEEA)2‑Lys(Ac)‑Gly, CC(=O)NCCCC[C@H](NC(=O)COCCOCCNC(=O)COCCOCCNC(=O)CC[C@H](NC(=O)CCCCCCCCCCCCCCCCCCC(=O)O)C(=O)O)C(=O)NCC(=O)*; Aib = CC(C)(N)C(=O)O

Experiments:
Assay in all cases: cell-based or functional assay
glucagon receptor (GCGR) [1] = target: glucagon receptor (GCGR)
[2] = target: glucagon-like peptide-1 receptor (GLP-1R)
[3] = target: glucagon-like peptide-1 receptor (GLP-1R); remark: listed apart in the source
glucagon receptor (GCGR) [4] = target: glucagon receptor (GCGR); remark: listed apart in the source
[5] = target: glucagon-like peptide-1 receptor (GLP-1R); remark: listed apart in the source
glucagon receptor (GCGR) [6] = target: glucagon receptor (GCGR); remark: listed apart in the source
[7] = target: glucagon-like peptide-1 receptor (GLP-1R); remark: listed apart in the source

Row | Binder | EC50 (nM), GLP-1 activity [3] [nM] | % EC50 compare to KPI (GCGR) (glucagon receptor (GCGR) [4]) [%] | Activity fold reduction compared to OPK-88003 KPI (GCGR) (glucagon receptor (GCGR) [4]) [fold] | EC50 [nM] GCGR, CBA potency assay (glucagon receptor (GCGR) [4]) [nM] | % EC50 compare to KPI (GLP1) [5] [%] | Activity fold reduction compared to OPK-88003 KPI (GLP1) [5] [fold] | EC50 [nM] GLP1, CBA potency assay [5] [nM] | other results
1 | HXQGTFTSDYSKYLDSKKAQEFVQWLLNXGRNRNNIACC (Aib at positions 2 and 29; one Eicosanedioic-gGlu-Glu-AEEA-AEEA-AEEA-Lys(Ac-)-Gly-OH binder on Cys38 (Formula XXII, SEQ ID NO: 47) or on Cys39 (Formula XXIII, SEQ ID NO: 48); C-terminal amide (backbone C^38C^39-NH2)) | 0.21 | 38 | 2.65 | 1.6 | 60 | 1.65 | 0.21 | % EC50 compare to KPI (GCGR), with HSA added (FA-conjugate + HSA) (glucagon receptor (GCGR) [1]): 2.6%; % EC50 compare to KPI (GCGR), without HSA (glucagon receptor (GCGR) [1]): 45%; Activity fold reduction compared to OPK-88003 KPI (GCGR), with HSA added (FA-conjugate + HSA) (glucagon receptor (GCGR) [1]): 38.6 fold; Activity fold reduction compared to OPK-88003 KPI (GCGR), without HSA (glucagon receptor (GCGR) [1]): 2.2 fold; EC50 [nM] GCGR, CBA potency assay, with HSA added (FA-conjugate + HSA) (glucagon receptor (GCGR) [1]): 52.9 nM; EC50 [nM] GCGR, CBA potency assay, without HSA (glucagon receptor (GCGR) [1]): 3.04 nM; % EC50 compare to KPI (GLP1), with HSA added (FA-conjugate + HSA) [2]: 8.9%; % EC50 compare to KPI (GLP1), without HSA [2]: 100%; Activity fold reduction compared to OPK-88003 KPI (GLP1), with HSA added (FA-conjugate + HSA) [2]: 11.2 fold; EC50 [nM] GLP1, CBA potency assay, with HSA added (FA-conjugate + HSA) [2]: 2.27 nM; EC50 [nM] GLP1, CBA potency assay, without HSA [2]: 0.2 nM
2 | HXQGTFTSDYSKYLDSKKAQEFVQWLLNXGRNRNNIAC (HELM PEPTIDE1{H.[Aib].Q.G.T.F.T.S.D.Y.S.K.Y.L.D.S.K.K.A.Q.E.F.V.Q.W.L.L.N.[Aib].G.R.N.R.N.N.I.A.C.[am]}$$$$V2.0; N-terminus assumed; SMILES CC[C@H](C)[C@H](NC(=O)[C@H](CC(N)=O)NC(=O)[C@H](CC(N)=O)NC(=O)[C@H](CCCNC(=N)N)NC(=O)[C@H](CC(N)=O)NC(=O)[C@H](CCCNC(=N)N)NC(=O)CNC(=O)C(C)(C)NC(=O)[C@H](CC(N)=O)NC(=O)[C@H](CC(C)C)NC(=O)[C@H](CC(C)C)NC(=O)[C@H](Cc1c[nH]c2ccccc12)NC(=O)[C@H](CCC(N)=O)NC(=O)[C@@H](NC(=O)[C@H](Cc1ccccc1)NC(=O)[C@H](CCC(=O)O)NC(=O)[C@H](CCC(N)=O)NC(=O)[C@H](C)NC(=O)[C@H](CCCCN)NC(=O)[C@H](CCCCN)NC(=O)[C@H](CO)NC(=O)[C@H](CC(=O)O)NC(=O)[C@H](CC(C)C)NC(=O)[C@H](Cc1ccc(O)cc1)NC(=O)[C@H](CCCCN)NC(=O)[C@H](CO)NC(=O)[C@H](Cc1ccc(O)cc1)NC(=O)[C@H](CC(=O)O)NC(=O)[C@H](CO)NC(=O)[C@@H](NC(=O)[C@H](Cc1ccccc1)NC(=O)[C@@H](NC(=O)CNC(=O)[C@H](CCC(N)=O)NC(=O)C(C)(C)NC(=O)[C@@H](N)Cc1c[nH]cn1)[C@@H](C)O)[C@@H](C)O)C(C)C)C(=O)N[C@@H](C)C(=O)N[C@@H](CS)C(N)=O) [MOD-604 KPI (mutated OXM analog of any one of SEQ ID NOs: 5 to 7)] | 0.13 | 72 | 1.4 | 0.83 | 45 | 2.2 | 0.282 | –
3 | H[Aib]QGTFTSDYSKYLDSKKAQEFVQWLLN[Aib]GRNRNNIAC(X2)-NH2 [OPK-88604 (modified OXM of Formula XIV)] | 0.09 | – | – | – | – | – | – | EC50 (nM) GCGR, glucagon activity in vitro (glucagon receptor (GCGR) [6]): 0.164 nM; EC50 (nM) GLP-1R, GLP-1 activity in vitro [7]: 0.0159 nM
4 | H[Aib]QGTFTSDYSKYLDSKKAQEFVQWLLN[Aib]GRNRNNIAC-NH2 (not fully specified (residue 38)) [Variant 2 (Formula XV)] | 0.1 | – | – | – | – | – | – | –
5 | H[Aib]QGTFTSDYSKYLDSKKAQEFVQWLLN[Aib]GRNRNNIAC(Eicosanedioic‑γGlu‑Glu‑(AEEA)3‑Lys(Ac)‑Gly)-NH2 [Variant 3 (Formula XVI)] | 0.15 | – | – | – | – | – | – | –
